Laboratory results: the nanobody polyreactivity screen of Harvey et al. (2022)

Experiment: yeast display, Sf9 membrane polyspecificity reagent, FACS + sequencing; frameworks hold sequencing errors
Outline: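 A synthetic nanobody library was expressed on Saccharomyces cerevisiae BJ5465 by galactose induction for 36–48 hours. The library was stained for 1 hour at 4 °C with 10% biotinylated, detergent-solubilized Sf9 membrane reagent and enriched with streptavidin microbeads before FACS. Low and high (top ~1%) gates were set on anti-HA fluorescence for expression and streptavidin fluorescence for reagent binding, and each polyreactivity label reflects the gate of origin.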

Sequence	polyreactivity (PSR sort gate)
QVQLVESGGGLVQAGGSLRLSCAASGYTFGTYDMGWYRQAPGKERELVAAISIGGSTNYADSVKGRFTISRDNEKNTVYLQMNSLKPVDTAVYYCAAEVNVGTLLLSVIVEDGDYWGQGTQVTVSS	low polyreactivity
QVQLVESGGGLVQAGGSLRLSCAASGGTIGRYTMGWYRQAPGKERELVAAITGRGGSTYYADSVKGRFTISRDNAKNTVYLQMNSLKPEDTAVYYCAAVSNVARMYYWGQGTQVTVSS	high polyreactivity
QVQLVESGGGLVQAGGRLRLSCAGSGRIFISNTMGWYRQGPGKERELVASISLRGGSTYYADSVKGRFTISRDNAKNSVYLQMNSLKPEDTAVYYCAAATLRQYDDEYWGQCTQVTVSS	high polyreactivity
QVQLVESGGGLVEAGGSLRLSCAASGSTINYNAMGWYRQAPGKERELVAAIDSGVSTNYADSVNGRFTISRDNAKNTVYLQMNSLKPEDTAVYYCAVGGAGSDDYWGQRTQVTVSS	low polyreactivity
QVQLVESGGGLVQAGGSLRLSCAASGSTFYPYAMGWYRQAPGNERELVAALDRGGSTSYADSVKGRFTISRDNAKNTVYLQMIRLKPEDTAVYYCAVARGGRRKYEYWGQGTQVTVSS	low polyreactivity
QVHLVESGGGLVQAGGSLRLSCAASGSTFGGNAMGWYRQPPGKERELVAAISSGDSTTYADSVKGRFTISRDNAKNTVYLQMNSLKPEDTAVYYCNADYTDTLTGYFSDEVYHGMDYWGQGTQVTVSS	low polyreactivity
QVQLVESGGGLVQAGGSLRLSCAASGRIFDSNAMGWYRPAPGKERELVAAISYDGGSTYYADSVKGRFTISRDNAKNTVYLQMNSLKPEDTAVYYCAADDGWYYYYGYDYWGQGTQVTVSS	low polyreactivity
QVQLVESGGGLVQAGGSLRLSCAASGSIFHLYAMGWYRQAPGKEREFVAAISSSGGLTYYADSVKGRFTISRDNAKNTVYLQMNSLKPEDTEVYYCATAEQYGTKLRKVSYQYDYWGQGTQVTVSS	low polyreactivity
QVQLVESGGGLVQAGGSLRLSCAASGRTSRNNVMGWYRQAPGKERELVAAITKRTDRTYYADSVKGRFTISRDNAKNTVYLQMNSLKPEDTAVYYCAADLSLSTGGRAFPTYGYWGQGTQVTVSS	high polyreactivity
QVQLVESGGGLVQAGGSLRLSCAASGSTFGRYVMGWYRQAPGKERELVAAISGSGGSTYYADSVKGRFTISRDNAKNTVYLQMNSLKPEDTAVYYCAARVAHYEYYWGQGTQVTVSS	high polyreactivity
QVQLVESGGGLVQAGGSLRLSCAASGRIFQFNFMGWYRQAPGKERELVAAISGSGGSTYADSVKGRFTISRDNAKNTVYLQMNSLKPEDTAVYYCATEYVVYRPRGRLQKFDYWGQGTQVTVSS	low polyreactivity
QVELVVSGGGLVQAGGSLRLSCAASGRIFYRYAMGWYRQAPGKERELVAAISGRGGSTYYADSVKGRFTISRDNAKNTVYLQMNSLKPEDTAVYYCNALPVYRSLAYEVDYWGQGTQVTVSS	high polyreactivity
QVQLVESGGGLVQAGGSLRLSCAASGRTFKSYSMGWYRPAPGKERELVAAISWSGGSTYYADSVKGRFTISRDNAKNTVYLQMNSLKPEDTAVYYCAKRGYASGSKWDYGYWGQGTQVTVSS	high polyreactivity
QVQLVESGGGLVQAGGSLRLSCAASGSTFWLYAIGWYRQAPGTERELVAAIRSGDRTNYADSVKGRFTISRDNAKKTVYLEMNSLKPEDTAVYYCAAVAYLNWTPQYYWGQGTQVTVSS	low polyreactivity
QVQLVASGGGLVQAGGSLRLSCAASGSISFYNAMGWYRQAPGKERELVAAINRSGGSTNYADSVKGLFTISRDNGKNTVYLQMNSLKPEDTAVYYCAAVSSKGNRHVYDYWGQGTQVTGSS	low polyreactivity
QVQLVESGGGLVQAGGSLRLSCAASGRIFVGYAMGWYRPAPGKERELVAAINRSGSCTYYADSVKVRFTISRDNAKITGYLQMNSLKPEDTAVYYCNARSGNRYGPRYDDWGQGTQVTVSS	high polyreactivity
QVQLVESRGGLLQAGGSLRLSCAASGIIFGHYDMGWYRQAPGKEWELVAAITFTGDSTYYADSVKGRFTISRDNAKHTVYLQMNSLKPEDTAVYYCAAETPVPWGSWGYDYWGQGTQVTVSS	low polyreactivity
